Assay results reported in the RNAGym collection of RNA variant scans (doi:10.1093/nar/gkz1192).

B1: CPEB3 Ribozyme (parent)
chain: UAACAGGGGGCCACAGCAGAAGCGUUCACGUCGCAGCCCCUGUCAGAUUCUGGUGAAUCUGCGAAUUCUGCUGUAUAUCUC

Variants of: B1
Experiment: self-cleavage, relative activity (ratio to wild type); higher = more cleavage; in vitro, sequencing
How it was run: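 For each CPEB3 ribozyme variant, relative activity is its cleaved/total read fraction divided by the unmutated ribozyme's. Barcoded error-prone PCR libraries were transcribed by T7 RNA polymerase (5 hours, 37°C) and held in DNase I for 15 min before an EDTA stop, with cleavage occurring throughout. Template-switching reverse transcription and Illumina sequencing were used to read the RNAs. A 5-read minimum applied, and results are the mean of three batches.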

In order of falling self-cleavage:
1. UAACAGGGGGCCACAGCAGAAGCGUUCACGUCGCAGCCCCUGUCAGAUUCUGGCGAAUCUGCGAAUUCUGCUGGAUAUCUC [U54C U74G]  1.39
2. UAACAGGGGGCCACAGCAGAAGCGUUCACGUCGCAGCCCCUGUCAGAUUCUGGCGAAUCUGCGAAUUCUGCUGAAUAUCUC [U54C U74A]  1.25
3. UAACAGGGGGCCACAGCAGAAGCGUUCACGUCGCAGCCCCUGUCAGAUUCUGGCGAAUCUGCGAAUUCUGCUGCAUAUCUC [U54C U74C]  1.21
4. UAACAGGGGGCCACAGCAGAAGCGUUCACGUCGCAGCCCCUGUCAGAUUCUGGCGAAUCUGCGAAUUCUGCUGUAUAUCAC [U54C U80A]  1.17
5. UAACAGGGGGCCACAGCAGAAGCGUUCACGUCGCAGCCCCUGUCAGAUUCUGGCGAAUCUGCGAAUUCUGCUGUAAAUCUC [U54C U76A]  1.17
6. UAACAGGGGGCCACAGCAGAAGCGUUCACGUCGCAGCCCCUGUCAGAUUCUGGGGAAUCUGCGAAUUCUGCCGUAUAUCUC [U54G U72C]  1.16
7. UAACAGGGGGCCACAGCAGAAGCGUUCACGUCGCAGCCCCUGUCAGAUUCUGGCGAAUCUGCGAAUUCUGCUGUAUAUCCC [U54C U80C]  1.09
8. UAACAGGGGGCCACAGCAGAAGCGUUCACGUCGCAGCCCCUGUCAGAUUCUGGCGAAUCUGCGAAUUCUGCUGUACAUCUC [U54C U76C]  1.06
9. UAACAGGGGGCCACAGCAGAAGCGUUCACGUCGCAGCCCCUGUCAGAUUCUGGGGAAUCUGCUAAUUCUGCUGUAUAUCUC [U54G G63U]  1.03
10. UAACAGGGGGCCACAGCAGAAGCGUUCACGUCGCAGCCCCUGUCAGAUUCUGGCGAAUCUGCGAAUUCUGCUGUAGAUCUC [U54C U76G]  0.98
11. UAACAGGGGGCCACAGCAGAAGCGUUCACGUCGCAGCCCCUGUCAGAUUCUGGGGAAUCUGCGAAUUCUGCGGUAUAUCUC [U54G U72G]  0.93
12. UAACAGGGGGCCACAGCAGAAGCGUUCACGUCGCAGCCCCUGUCAGAUUCUGGGGAAUCUGCGAAUUCUGCUGCAUAUCUC [U54G U74C]  0.92
13. UAACAGGGGGCCACAGCAGAAGCGUUCACGUCGCAGCCCCUGUCAGAUUCUGGGGAAUCUGCAAAUUCUGCUGUAUAUCUC [U54G G63A]  0.91
14. UAACAGGGGGCCACAGCAGAAGCGUUCACGUCGCAGCCCCUGUCAGAUUCUGGUAAAUCUGCGAAUUCUGCUGUAUAUCUC [G55A]  0.84
15. UAACAGGGGGCCACAGCAGAAGCGUUCACGUCGCAGCCCCUGUCAGAUUCUGGUAUAUCUGCGAAUUCUGCUGUAUAUCUC [G55A A56U]  0.84
16. UAACAGGGGGCCACAGCAGAAGCGUUCACGUCGCAGCCCCUGUCAGAUUCUGGUAGAUCUGCGAAUUCUGCUGUAUAUCUC [G55A A56G]  0.8
17. UAACAGGGGGCCACAGCAGAAGCGUUCACGUCGCAGCCCCUGUCAGAUUCUGGGGAAUCUGCGAAUUCUGCUGUAUAUCUC [U54G]  0.77
18. UAACAGGGGGCCACAGCAGAAGCGUUCACGUCGCAGCCCCUGUCAGAUUCUGGGGAAUCUGCGAAUUCAGCUGUAUAUCUC [U54G U69A]  0.62
19. UAACAGGGGGCCACAGCAGAAGCGUUCACGUCGCAGCCCCUGUCAGAUUCUGGGGAAUCUGCGAAUACUGCUGUAUAUCUC [U54G U67A]  0.57
20. UAACAGGGGGCCACAGCAGAAGCGUUCACGUCGCAGCCCCUGUCAGAUUCUGGUAAUUCUGCGAAUUCUGCUGUAUAUCUC [G55A A57U]  0.54
21. UAACAGGGGGCCACAGCAGAAGCGUUCACGUCGCAGCCCCUGUCAGAUUCUGGUAAGUCUGCGAAUUCUGCUGUAUAUCUC [G55A A57G]  0.46
22. UAACAGGGGGCCACAGCAGAAGCGUUCACGUCGCAGCCCCUGUCAGAUUCUGGGGGAUCUGCGAAUUCUGCUGUAUAUCUC [U54G A56G]  0.46
23. UAACAGGGGGCCACAGCAGAAGCGUUCACGUCGCAGCCCCUGUCAGAUUCUGGCGAAUCUGCGAAUUCGGCUGUAUAUCUC [U54C U69G]  0.43
24. UAACAGGGGGCCACAGCAGAAGCGUUCACGUCGCAGCCCCUGUCAGAUUCUGGGGAAUCUGCGAAUUCUGAUGUAUAUCUC [U54G C71A]  0.42
25. UAACAGGGGGCCACAGCAGAAGCGUUCACGUCGCAGCCCCUGUCAGAUUCUGGGGAAUCUGCGAAUUCUGCAGUAUAUCUC [U54G U72A]  0.41
26. UAACAGGGGGCCACAGCAGAAGCGUUCACGUCGCAGCCCCUGUCAGAUUCUGGUAAAUCUGCGAAUUCUGCUGUGUAUCUC [G55A A75G]  0.4
27. UAACAGGGGGCCACAGCAGAAGCGUUCACGUCGCAGCCCCUGUCAGAUUCUGGGGAAUCUGCGAAUUCCGCUGUAUAUCUC [U54G U69C]  0.37
28. UAACAGGGGGCCACAGCAGAAGCGUUCACGUCGCAGCCCCUGUCAGAUUCUGGGGAAUCUGCGAAUCCUGCUGUAUAUCUC [U54G U67C]  0.32
29. UAACAGGGGGCCACAGCAGAAGCGUUCACGUCGCAGCCCCUGUCAGAUUCUGGGGUAUCUGCGAAUUCUGCUGUAUAUCUC [U54G A56U]  0.31
30. UAACAGGGGGCCACAGCAGAAGCGUUCACGUCGCAGCCCCUGUCAGAUUCUGGUAAAUCUGCGAAUACUGCUGUAUAUCUC [G55A U67A]  0.28
31. UAACAGGGGGCCACAGCAGAAGCGUUCACGUCGCAGCCCCUGUCAGAUUCUGGUAAAUCUGCGAACUCUGCUGUAUAUCUC [G55A U66C]  0.22
32. UAACAGGGGGCCACAGCAGAAGCGUUCACGUCGCAGCCCCUGUCAGAUUCUGGUAAAUCUGCGAAUCCUGCUGUAUAUCUC [G55A U67C]  0.22
33. UAACAGGGGGCCACAGCAGAAGCGUUCACGUCGCAGCCCCUGUCAGAUUCUGGGGAAUCUGUGAAUUCUGCUGUAUAUCUC [U54G C62U]  0.19
34. UAACAGGGGGCCACAGCAGAAGCGUUCACGUCGCAGCCCCUGUCAGAUUCUGGGGAAUCUGCGAAUGCUGCUGUAUAUCUC [U54G U67G]  0.14
